Test results taken from PMC7560607, “Synapse type-specific proteomic dissection identifies IgSF8 as a hippocampal CA3 microcircuit organizer” (Nature Communications, 2020).

T1: Tenascin-R, AP- or Fc-tagged (interactome library) ( (human or mouse sequence …, UniProt Q8BYI9 32-1358))
T1 construct: In the BLI experiment only the Fc fusion stood, captured from conditioned medium of EXPI293 cells on anti-human Fc sensors; also called TenR; TenR-Fc/AP; source: Expi293 cells, transfected, conditioned medium used without purification; not shown: Fc (human IgG1) in the Fc fusion, C-terminal, kept; alkaline phosphatase (human) in the AP fusion, C-terminal, kept
T1 sequence (looked up): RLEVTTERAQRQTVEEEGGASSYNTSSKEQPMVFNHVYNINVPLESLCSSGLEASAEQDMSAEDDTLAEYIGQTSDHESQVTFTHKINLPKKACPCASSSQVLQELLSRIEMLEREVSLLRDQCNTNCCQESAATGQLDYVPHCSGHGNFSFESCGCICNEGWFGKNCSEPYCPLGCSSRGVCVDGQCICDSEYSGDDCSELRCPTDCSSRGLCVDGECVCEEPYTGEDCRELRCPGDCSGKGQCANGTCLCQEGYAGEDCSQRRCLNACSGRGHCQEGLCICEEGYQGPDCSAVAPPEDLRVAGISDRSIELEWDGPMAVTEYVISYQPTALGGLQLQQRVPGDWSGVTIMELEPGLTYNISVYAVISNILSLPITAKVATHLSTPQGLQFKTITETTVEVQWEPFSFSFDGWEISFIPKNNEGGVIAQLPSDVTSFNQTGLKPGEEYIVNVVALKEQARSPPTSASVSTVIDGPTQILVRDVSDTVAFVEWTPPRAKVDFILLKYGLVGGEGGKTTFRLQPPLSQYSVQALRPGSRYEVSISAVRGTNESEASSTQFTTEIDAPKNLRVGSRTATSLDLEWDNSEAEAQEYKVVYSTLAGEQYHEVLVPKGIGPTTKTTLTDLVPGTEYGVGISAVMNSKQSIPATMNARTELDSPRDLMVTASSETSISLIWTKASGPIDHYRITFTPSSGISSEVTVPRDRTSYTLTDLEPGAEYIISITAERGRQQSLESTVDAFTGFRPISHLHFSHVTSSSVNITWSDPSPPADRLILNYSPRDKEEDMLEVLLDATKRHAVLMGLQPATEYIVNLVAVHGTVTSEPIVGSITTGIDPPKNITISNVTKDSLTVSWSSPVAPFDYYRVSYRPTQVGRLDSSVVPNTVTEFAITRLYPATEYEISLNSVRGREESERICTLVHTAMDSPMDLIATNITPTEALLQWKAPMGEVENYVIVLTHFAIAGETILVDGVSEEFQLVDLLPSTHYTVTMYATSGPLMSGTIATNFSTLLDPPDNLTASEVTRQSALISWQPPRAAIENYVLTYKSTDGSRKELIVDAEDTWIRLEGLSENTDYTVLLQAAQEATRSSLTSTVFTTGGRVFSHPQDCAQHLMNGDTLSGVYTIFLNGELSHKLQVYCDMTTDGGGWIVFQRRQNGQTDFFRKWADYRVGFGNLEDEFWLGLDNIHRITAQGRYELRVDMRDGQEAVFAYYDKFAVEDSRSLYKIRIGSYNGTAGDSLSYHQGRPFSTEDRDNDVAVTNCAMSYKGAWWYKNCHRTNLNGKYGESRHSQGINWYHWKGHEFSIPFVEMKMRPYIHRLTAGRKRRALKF

T2: TenR-Fc (Tenascin-R fused to the Fc region of human IgG1) ( (human or mouse sequences …, UniProt Q8BYI9 32-1358))
T2 construct: Tenascin-R, secreted ECM protein; also called Tenascin-R-Fc; source: EXPI293 cells, transfected, conditioned medium; not shown: Fc (human IgG1), C-terminal, kept
T2 sequence (looked up): T1 sequence (looked up)

B1: purified IgSF8 (BLI analyte) (natural protein)
chain: RQVHVPRGPLYRVAGTAVSISCNVSDYEGPAQQDFEWFMYRPEAPATSLGIVSTKDSQFSYAVFGPRVASGDLQVQRLKGDSVVLKIARLQAQDSGFYECYTPSTDTQYLGNYSAKVELRVLPDELQVSAAPPGPRGRQAATSPSRLTVHEGQELALGCLAQTKTKKHTHLSVSFGRAIPEAPVGRATLQEVVGLRSDMAVEAGAPYAERLASGELRLSKEGTDRYRMVVGGAQAGDSGTYHCTAAEWIQDPDGSWVQVAEKRAVLAHVDVQTLSSQLAVTVGPGERRIGPGEPLELLCNVSGALPPPGRHAAYSVGWEMAPAGAPGPGRLVAQLDTEGIGSLGPGYEDRHIAMEKVASRTYRLRLEAARPADAGTYRCLAKAYVRGSGTRLREAASARSRPLPVHVREEGVVLEAVAWLAGGTVYRGETASLLCNISVRGGPPGLRLAASWWVERPEEGELSSGPAQLVGGVGQDGVAELGVRPGGGPVSVELVGPRSHRLRLHGLGPEDEGIYHCAPSAWVQHADYSWYQAGSARSGPVTVYPYTHAVDT
modifications: Same molecule as Sm1. Secreted ectodomain, likely N-glycosylated; limits by convention (UniProt extracellular domain without the signal peptide).
B2: IgSF8 (purified IgSF8 protein used as analyte in biolayer interferometry) (receptor)
chain: B1 chain
modifications: Secreted ectodomain, likely N-glycosylated. Limits are the UniProt extracellular domain without the signal peptide. Mouse is inferred from the mouse IgSF8 cDNA (BC048387) and the mouse IgSF8-His used

Tests used:
[1] = molecular target: T1, Tenascin-R, AP- or Fc-tagged …; assay: BLI; BLItz, RT; TenR-Fc captured from EXPI293 conditioned medium on anti-human Fc sensors; purified IgSF8 34-0.133 µM in twofold dilution; 10 mM Hepes pH 7.4, 150 mM NaCl, 1 mM CaCl2, 0.2% Tween20, 1% BSA; KD from response vs concentration; Fc-only sensor subtracted; settings: one partner purified
[2] = molecular target: T2, TenR-Fc (Tenascin-R fused to the Fc …); assay: BLI; BLItz, room temperature; TenR-Fc captured from conditioned medium on anti-human Fc biosensors; purified IgSF8 34-0.133 uM in twofold dilution; association in 10 mM Hepes pH 7.4, 150 mM NaCl, 1 mM CaCl2, 0.2% Tween20, 1% BSA; Fc-only sensor subtracted; binding response against concentration fitted as one site specific binding; settings: one partner purified

Row | Binder | Kd [1] [nM] | Kd [2] [nM]
1 | B1 | ~1400 | 
2 | B2 |  | 1390
